Here are results for 8 molecules from US20250171562A1 (ALK ABELL, published 2025).

A value given as a limit tells only on which side of the number the result lay.

B1: CIgG4F3A1(G4S)1 (Fc fusion)
chain 1: GPPCPPCPAPEFLGGPSVFLFPPKPKDTLMISRTPEVTCVVVDVSQEDPEVQFNWYVDGVEVHNAKTKPREEQFNSTYRVVSVLTVLHQDWLNGKEYKCKVSNKGLPSSIEKTISKAKGQPREPQVYTLPPCQEEMTKNQVSLWCLVKGFYPSDIAVEWESNGQPENNYKTTPPVLDSDGSFFLYSRLTVDKSRWQEGNVFSCSVMHEALHNHYTQKSLSLSLGKGGGGSDVQLQESGGGLVQAGGSLKLSCAASRGSLSRWDVAWFRQAPGKERSFVTRISWSGTTSYYADAVKGRFAISRDNAKNTVYLQMNSLKPEDTAVYYCAVALYGNRGYYDVNAHSYWGQGTQVTVS
chain 2: GPPCPPCPAPEFLGGPSVFLFPPKPKDTLMISRTPEVTCVVVDVSQEDPEVQFNWYVDGVEVHNAKTKPREEQFNSTYRVVSVLTVLHQDWLNGKEYKCKVSNKGLPSSIEKTISKAKGQPREPQVCTLPPSQEEMTKNQVSLSCAVKGFYPSDIAVEWESNGQPENNYKTTPPVLDSDGSFFLVSRLTVDKSRWQEGNVFSCSVMHEALHNHYTQKSLSLSLGKGGGGSEVQLLESGGGLVQPGGSLRLSCAASGFTFGNYDMAWVRQAPGKRPEWVSSIDTGGDITHYADSVKGRFTISRDNAKNTLYLQMNSLRPEDTAVYWCATDEEYALGPNEFDYYGQGTLVTVSS
B2: NIgG4F4A1(G4S)1 (Fc fusion)
chain 1: DVQLQESGGGLVQAGGSLRLSCAVSGLSFSSMGWFRQPPGKEREFVAAISLYSGSTYYADSVKGRFTISSDNAKSTVYLQMNSLKPEDAAVYFCAADRQRTWSTFYASRQATYNYWGQGTQVTVTSGGGGSGPPCPPCPAPEFLGGPSVFLFPPKPKDTLMISRTPEVTCVVVDVSQEDPEVQFNWYVDGVEVHNAKTKPREEQFNSTYRVVSVLTVLHQDWLNGKEYKCKVSNKGLPSSIEKTISKAKGQPREPQVYTLPPCQEEMTKNQVSLWCLVKGFYPSDIAVEWESNGQPENNYKTTPPVLDSDGSFFLYSRLTVDKSRWQEGNVFSCSVMHEALHNHYTQKSLSLSLGK
chain 2: EVQLLESGGGLVQPGGSLRLSCAASGFTFGNYDMAWVRQAPGKRPEWVSSIDTGGDITHYADSVKGRFTISRDNAKNTLYLQMNSLRPEDTAVYWCATDEEYALGPNEFDYYGQGTLVTVSSGGGGSGPPCPPCPAPEFLGGPSVFLFPPKPKDTLMISRTPEVTCVVVDVSQEDPEVQFNWYVDGVEVHNAKTKPREEQFNSTYRVVSVLTVLHQDWLNGKEYKCKVSNKGLPSSIEKTISKAKGQPREPQVCTLPPSQEEMTKNQVSLSCAVKGFYPSDIAVEWESNGQPENNYKTTPPVLDSDGSFFLVSRLTVDKSRWQEGNVFSCSVMHEALHNHYTQKSLSLSLGK
B3: NIgG4F4A1(G4S)2 (Fc fusion)
chain 1: DVQLQESGGGLVQAGGSLRLSCAVSGLSFSSMGWFRQPPGKEREFVAAISLYSGSTYYADSVKGRFTISSDNAKSTVYLQMNSLKPEDAAVYFCAADRQRTWSTFYASRQATYNYWGQGTQVTVTSGGGGSGGGGSGPPCPPCPAPEFLGGPSVFLFPPKPKDTLMISRTPEVTCVVVDVSQEDPEVQFNWYVDGVEVHNAKTKPREEQFNSTYRVVSVLTVLHQDWLNGKEYKCKVSNKGLPSSIEKTISKAKGQPREPQVYTLPPCQEEMTKNQVSLWCLVKGFYPSDIAVEWESNGQPENNYKTTPPVLDSDGSFFLYSRLTVDKSRWQEGNVFSCSVMHEALHNHYTQKSLSLSLGK
chain 2: EVQLLESGGGLVQPGGSLRLSCAASGFTFGNYDMAWVRQAPGKRPEWVSSIDTGGDITHYADSVKGRFTISRDNAKNTLYLQMNSLRPEDTAVYWCATDEEYALGPNEFDYYGQGTLVTVSSGGGGSGGGGSGPPCPPCPAPEFLGGPSVFLFPPKPKDTLMISRTPEVTCVVVDVSQEDPEVQFNWYVDGVEVHNAKTKPREEQFNSTYRVVSVLTVLHQDWLNGKEYKCKVSNKGLPSSIEKTISKAKGQPREPQVCTLPPSQEEMTKNQVSLSCAVKGFYPSDIAVEWESNGQPENNYKTTPPVLDSDGSFFLVSRLTVDKSRWQEGNVFSCSVMHEALHNHYTQKSLSLSLGK
B4: NIgG4F4A1(G4S)3 (Fc fusion)
chain 1: DVQLQESGGGLVQAGGSLRLSCAVSGLSFSSMGWFRQPPGKEREFVAAISLYSGSTYYADSVKGRFTISSDNAKSTVYLQMNSLKPEDAAVYFCAADRQRTWSTFYASRQATYNYWGQGTQVTVTSGGGGSGGGGSGGGGSGPPCPPCPAPEFLGGPSVFLFPPKPKDTLMISRTPEVTCVVVDVSQEDPEVQFNWYVDGVEVHNAKTKPREEQFNSTYRVVSVLTVLHQDWLNGKEYKCKVSNKGLPSSIEKTISKAKGQPREPQVYTLPPCQEEMTKNQVSLWCLVKGFYPSDIAVEWESNGQPENNYKTTPPVLDSDGSFFLYSRLTVDKSRWQEGNVFSCSVMHEALHNHYTQKSLSLSLGK
chain 2: EVQLLESGGGLVQPGGSLRLSCAASGFTFGNYDMAWVRQAPGKRPEWVSSIDTGGDITHYADSVKGRFTISRDNAKNTLYLQMNSLRPEDTAVYWCATDEEYALGPNEFDYYGQGTLVTVSSGGGGSGGGGSGGGGSGPPCPPCPAPEFLGGPSVFLFPPKPKDTLMISRTPEVTCVVVDVSQEDPEVQFNWYVDGVEVHNAKTKPREEQFNSTYRVVSVLTVLHQDWLNGKEYKCKVSNKGLPSSIEKTISKAKGQPREPQVCTLPPSQEEMTKNQVSLSCAVKGFYPSDIAVEWESNGQPENNYKTTPPVLDSDGSFFLVSRLTVDKSRWQEGNVFSCSVMHEALHNHYTQKSLSLSLGK
B5: CIgG4F3A1(G4S)2 (Fc fusion)
chain 1: GPPCPPCPAPEFLGGPSVFLFPPKPKDTLMISRTPEVTCVVVDVSQEDPEVQFNWYVDGVEVHNAKTKPREEQFNSTYRVVSVLTVLHQDWLNGKEYKCKVSNKGLPSSIEKTISKAKGQPREPQVYTLPPCQEEMTKNQVSLWCLVKGFYPSDIAVEWESNGQPENNYKTTPPVLDSDGSFFLYSRLTVDKSRWQEGNVFSCSVMHEALHNHYTQKSLSLSLGKGGGGSGGGGSDVQLQESGGGLVQAGGSLKLSCAASRGSLSRWDVAWFRQAPGKERSFVTRISWSGTTSYYADAVKGRFAISRDNAKNTVYLQMNSLKPEDTAVYYCAVALYGNRGYYDVNAHSYWGQGTQVTVS
chain 2: GPPCPPCPAPEFLGGPSVFLFPPKPKDTLMISRTPEVTCVVVDVSQEDPEVQFNWYVDGVEVHNAKTKPREEQFNSTYRVVSVLTVLHQDWLNGKEYKCKVSNKGLPSSIEKTISKAKGQPREPQVCTLPPSQEEMTKNQVSLSCAVKGFYPSDIAVEWESNGQPENNYKTTPPVLDSDGSFFLVSRLTVDKSRWQEGNVFSCSVMHEALHNHYTQKSLSLSLGKGGGGSGGGGSEVQLLESGGGLVQPGGSLRLSCAASGFTFGNYDMAWVRQAPGKRPEWVSSIDTGGDITHYADSVKGRFTISRDNAKNTLYLQMNSLRPEDTAVYWCATDEEYALGPNEFDYYGQGTLVTVSS
B6: CIgG4F3A1(G4S)3 (Fc fusion)
chain 1: GPPCPPCPAPEFLGGPSVFLFPPKPKDTLMISRTPEVTCVVVDVSQEDPEVQFNWYVDGVEVHNAKTKPREEQFNSTYRVVSVLTVLHQDWLNGKEYKCKVSNKGLPSSIEKTISKAKGQPREPQVYTLPPCQEEMTKNQVSLWCLVKGFYPSDIAVEWESNGQPENNYKTTPPVLDSDGSFFLYSRLTVDKSRWQEGNVFSCSVMHEALHNHYTQKSLSLSLGKGGGGSGGGGSGGGGSDVQLQESGGGLVQAGGSLKLSCAASRGSLSRWDVAWFRQAPGKERSFVTRISWSGTTSYYADAVKGRFAISRDNAKNTVYLQMNSLKPEDTAVYYCAVALYGNRGYYDVNAHSYWGQGTQVTVS
chain 2: GPPCPPCPAPEFLGGPSVFLFPPKPKDTLMISRTPEVTCVVVDVSQEDPEVQFNWYVDGVEVHNAKTKPREEQFNSTYRVVSVLTVLHQDWLNGKEYKCKVSNKGLPSSIEKTISKAKGQPREPQVCTLPPSQEEMTKNQVSLSCAVKGFYPSDIAVEWESNGQPENNYKTTPPVLDSDGSFFLVSRLTVDKSRWQEGNVFSCSVMHEALHNHYTQKSLSLSLGKGGGGSGGGGSGGGGSEVQLLESGGGLVQPGGSLRLSCAASGFTFGNYDMAWVRQAPGKRPEWVSSIDTGGDITHYADSVKGRFTISRDNAKNTLYLQMNSLRPEDTAVYWCATDEEYALGPNEFDYYGQGTLVTVSS
B7: CIgG4F4A1(RS) (Fc fusion)
chain 1: GPPCPPCPAPEFLGGPSVFLFPPKPKDTLMISRTPEVTCVVVDVSQEDPEVQFNWYVDGVEVHNAKTKPREEQFNSTYRVVSVLTVLHQDWLNGKEYKCKVSNKGLPSSIEKTISKAKGQPREPQVYTLPPCQEEMTKNQVSLWCLVKGFYPSDIAVEWESNGQPENNYKTTPPVLDSDGSFFLYSRLTVDKSRWQEGNVFSCSVMHEALHNHYTQKSLSLSLGKRSDVQLQESGGGLVQAGGSLRLSCAVSGLSFSSMGWFRQPPGKEREFVAAISLYSGSTYYADSVKGRFTISSDNAKSTVYLQMNSLKPEDAAVYFCAADRQRTWSTFYASRQATYNYWGQGTQVTVTS
chain 2: GPPCPPCPAPEFLGGPSVFLFPPKPKDTLMISRTPEVTCVVVDVSQEDPEVQFNWYVDGVEVHNAKTKPREEQFNSTYRVVSVLTVLHQDWLNGKEYKCKVSNKGLPSSIEKTISKAKGQPREPQVCTLPPSQEEMTKNQVSLSCAVKGFYPSDIAVEWESNGQPENNYKTTPPVLDSDGSFFLVSRLTVDKSRWQEGNVFSCSVMHEALHNHYTQKSLSLSLGKRSEVQLLESGGGLVQPGGSLRLSCAASGFTFGNYDMAWVRQAPGKRPEWVSSIDTGGDITHYADSVKGRFTISRDNAKNTLYLQMNSLRPEDTAVYWCATDEEYALGPNEFDYYGQGTLVTVSS
B8: NIgG4F4A1(RS) (Fc fusion)
chain 1: DVQLQESGGGLVQAGGSLRLSCAVSGLSFSSMGWFRQPPGKEREFVAAISLYSGSTYYADSVKGRFTISSDNAKSTVYLQMNSLKPEDAAVYFCAADRQRTWSTFYASRQATYNYWGQGTQVTVTSRSGPPCPPCPAPEFLGGPSVFLFPPKPKDTLMISRTPEVTCVVVDVSQEDPEVQFNWYVDGVEVHNAKTKPREEQFNSTYRVVSVLTVLHQDWLNGKEYKCKVSNKGLPSSIEKTISKAKGQPREPQVYTLPPCQEEMTKNQVSLWCLVKGFYPSDIAVEWESNGQPENNYKTTPPVLDSDGSFFLYSRLTVDKSRWQEGNVFSCSVMHEALHNHYTQKSLSLSLGK
chain 2: EVQLLESGGGLVQPGGSLRLSCAASGFTFGNYDMAWVRQAPGKRPEWVSSIDTGGDITHYADSVKGRFTISRDNAKNTLYLQMNSLRPEDTAVYWCATDEEYALGPNEFDYYGQGTLVTVSSRSGPPCPPCPAPEFLGGPSVFLFPPKPKDTLMISRTPEVTCVVVDVSQEDPEVQFNWYVDGVEVHNAKTKPREEQFNSTYRVVSVLTVLHQDWLNGKEYKCKVSNKGLPSSIEKTISKAKGQPREPQVCTLPPSQEEMTKNQVSLSCAVKGFYPSDIAVEWESNGQPENNYKTTPPVLDSDGSFFLVSRLTVDKSRWQEGNVFSCSVMHEALHNHYTQKSLSLSLGK

This assay deals with T1, recombinant human IgE (human, UniProt P01854-1 1-428).
T1 construct: made in-house (ALK); preloaded on immobilised FcεRIα in the displacement ELISA
T1 sequence (P01854 other isoform, or with tags, fused parts or gaps): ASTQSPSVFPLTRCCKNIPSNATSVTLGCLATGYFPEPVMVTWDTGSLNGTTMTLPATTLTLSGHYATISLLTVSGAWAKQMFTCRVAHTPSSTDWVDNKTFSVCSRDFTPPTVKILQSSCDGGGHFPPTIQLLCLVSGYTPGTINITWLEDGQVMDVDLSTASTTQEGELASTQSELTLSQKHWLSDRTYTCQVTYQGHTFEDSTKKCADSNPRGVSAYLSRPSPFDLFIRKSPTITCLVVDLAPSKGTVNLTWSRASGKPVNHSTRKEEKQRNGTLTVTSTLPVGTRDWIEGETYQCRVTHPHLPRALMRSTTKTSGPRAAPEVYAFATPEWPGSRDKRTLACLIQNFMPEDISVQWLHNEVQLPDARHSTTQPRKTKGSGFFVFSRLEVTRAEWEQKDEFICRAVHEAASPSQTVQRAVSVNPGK
Kind of assay: IgE-FcεRIα displacement ELISA. The method in brief: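 Streptavidin-coated plates carried site-specifically biotinylated recombinant human FcεRIα, loaded with recombinant human IgE at 13 ng/ml. sdAbs in a pM–μM series were added for 1 h, and displaced IgE was washed off. Percent displacement was the signal reduction versus the no-sdAb control, giving EC50 and maximal effect.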
Regarding B1, the half-maximal effective concentration (EC50) stood at 1000 nM and the Max effect was found to be 50%. On to B2, for which the Max effect was over 95%. The same measure, in the same setting: the same measure for B3: over 95%; for B4: over 95%. B5: the EC50 worked out at 41 nM and the Max effect came to 80%.

For B6, the EC50 stood at 24 nM and the Max effect was found to be 90%. Taken in the same sequence, the figures for B7 were 90 nM and 70%. Take B8: the Max effect is over 95%.
